Experimental data published in article PMC8671107 (Frontiers in Molecular Biosciences, 2021).
No end group written: not given here.

Experiments:
[1] = biological target: neuronal human α7 nicotinic acetylcholine receptor expressed in GH4C1 cells (human) (UniProt P36544); experiment: radioligand binding
[2] = biological target: muscle-type nicotinic acetylcholine receptor from Torpedo californica electric organ (Torpedo californica (endogenous in electric organ)); experiment: radioligand binding
[3] = biological target: T1, acetylcholine binding protein from Lymnaea stagnalis (Lymnaea stagnalis, UniProt P58154 20-229); experiment: radioligand binding; settings: both partners purified
T1 construct: also called AChBP; L. stagnalis AChBP

[4] = biological target: T1, acetylcholine binding protein from …; experiment: radioligand binding; settings: both partners purified; remark: listed apart in the source
[5] = biological target: T1, acetylcholine binding protein from …; experiment: MST; settings: both partners purified
[6] = biological target: T1, acetylcholine binding protein from …; experiment: other fluorescence titration; settings: both partners purified

Sequence of muscle-type nicotinic acetylcholine receptor from Torpedo californica electric organ (Torpedo californica (endogenous in electric organ)) (P02710 25-461 limits assumed, chain 1 of 4): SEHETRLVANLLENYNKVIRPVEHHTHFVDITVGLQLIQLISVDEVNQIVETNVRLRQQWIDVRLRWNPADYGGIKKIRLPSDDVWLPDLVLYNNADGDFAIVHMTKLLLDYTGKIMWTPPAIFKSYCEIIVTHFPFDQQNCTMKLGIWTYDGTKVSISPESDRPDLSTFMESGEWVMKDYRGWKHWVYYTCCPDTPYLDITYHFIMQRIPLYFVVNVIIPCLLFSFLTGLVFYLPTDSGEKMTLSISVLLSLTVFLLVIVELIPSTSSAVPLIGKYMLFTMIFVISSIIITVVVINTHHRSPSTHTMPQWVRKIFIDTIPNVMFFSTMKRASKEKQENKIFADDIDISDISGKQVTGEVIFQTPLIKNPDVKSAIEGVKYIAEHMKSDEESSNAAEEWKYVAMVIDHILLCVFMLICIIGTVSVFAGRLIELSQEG
Sequence of muscle-type nicotinic acetylcholine receptor from Torpedo californica electric organ (Torpedo californica (endogenous in electric organ)) (P02712 25-493 limits assumed, chain 2 of 4, further chain): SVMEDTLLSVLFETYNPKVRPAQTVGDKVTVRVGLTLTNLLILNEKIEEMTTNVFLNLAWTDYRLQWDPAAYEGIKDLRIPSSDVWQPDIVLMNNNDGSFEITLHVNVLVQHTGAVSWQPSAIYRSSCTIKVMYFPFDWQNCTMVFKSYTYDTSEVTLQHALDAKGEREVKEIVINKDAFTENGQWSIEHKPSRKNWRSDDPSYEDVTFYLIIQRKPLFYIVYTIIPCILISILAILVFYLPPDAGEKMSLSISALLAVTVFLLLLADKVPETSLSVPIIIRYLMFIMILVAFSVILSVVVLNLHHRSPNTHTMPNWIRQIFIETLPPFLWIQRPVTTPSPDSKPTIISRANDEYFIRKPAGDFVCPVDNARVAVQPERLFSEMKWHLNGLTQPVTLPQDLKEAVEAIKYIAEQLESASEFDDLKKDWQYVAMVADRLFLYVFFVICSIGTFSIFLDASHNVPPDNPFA
Sequence of muscle-type nicotinic acetylcholine receptor from Torpedo californica electric organ (Torpedo californica (endogenous in electric organ)) (P02714 18-506 limits assumed, chain 3 of 4, further chain): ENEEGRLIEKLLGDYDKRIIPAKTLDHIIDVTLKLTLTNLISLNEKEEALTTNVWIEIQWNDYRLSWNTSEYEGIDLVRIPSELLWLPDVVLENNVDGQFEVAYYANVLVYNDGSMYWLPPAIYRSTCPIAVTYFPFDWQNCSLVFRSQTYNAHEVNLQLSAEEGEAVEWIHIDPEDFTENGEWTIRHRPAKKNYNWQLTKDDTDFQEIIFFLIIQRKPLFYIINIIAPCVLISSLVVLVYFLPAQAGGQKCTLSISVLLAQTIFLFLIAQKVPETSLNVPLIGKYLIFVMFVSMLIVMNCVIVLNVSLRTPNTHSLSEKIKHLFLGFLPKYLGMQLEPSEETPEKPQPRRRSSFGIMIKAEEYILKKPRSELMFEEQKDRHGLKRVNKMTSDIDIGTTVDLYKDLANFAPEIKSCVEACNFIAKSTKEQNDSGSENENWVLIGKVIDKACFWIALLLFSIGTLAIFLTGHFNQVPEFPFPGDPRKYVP
Sequence of muscle-type nicotinic acetylcholine receptor from Torpedo californica electric organ (Torpedo californica (endogenous in electric organ)) (P02718 22-522 limits assumed, chain 4 of 4, further chain): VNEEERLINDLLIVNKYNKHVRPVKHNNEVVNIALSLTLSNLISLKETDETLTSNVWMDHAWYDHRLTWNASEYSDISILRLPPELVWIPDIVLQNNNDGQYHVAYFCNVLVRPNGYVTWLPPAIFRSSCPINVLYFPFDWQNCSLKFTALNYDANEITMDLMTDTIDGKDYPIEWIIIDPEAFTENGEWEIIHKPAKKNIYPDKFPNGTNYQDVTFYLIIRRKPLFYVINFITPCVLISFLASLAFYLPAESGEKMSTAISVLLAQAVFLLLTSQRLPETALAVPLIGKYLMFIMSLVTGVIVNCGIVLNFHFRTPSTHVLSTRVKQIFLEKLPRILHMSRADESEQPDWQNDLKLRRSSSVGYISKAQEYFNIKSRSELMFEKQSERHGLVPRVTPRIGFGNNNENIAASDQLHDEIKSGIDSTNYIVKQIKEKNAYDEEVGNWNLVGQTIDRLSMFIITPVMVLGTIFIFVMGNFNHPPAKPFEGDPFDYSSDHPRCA
T1 sequence (P58154 20-229): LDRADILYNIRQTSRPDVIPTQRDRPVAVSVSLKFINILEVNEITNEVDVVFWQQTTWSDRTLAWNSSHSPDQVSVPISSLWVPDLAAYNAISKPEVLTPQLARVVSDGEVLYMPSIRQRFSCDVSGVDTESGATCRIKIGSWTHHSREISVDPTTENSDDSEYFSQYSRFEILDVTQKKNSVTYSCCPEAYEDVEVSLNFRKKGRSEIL
Sequence of neuronal human α7 nicotinic acetylcholine receptor expressed in GH4C1 cells (human) (P36544 23-502): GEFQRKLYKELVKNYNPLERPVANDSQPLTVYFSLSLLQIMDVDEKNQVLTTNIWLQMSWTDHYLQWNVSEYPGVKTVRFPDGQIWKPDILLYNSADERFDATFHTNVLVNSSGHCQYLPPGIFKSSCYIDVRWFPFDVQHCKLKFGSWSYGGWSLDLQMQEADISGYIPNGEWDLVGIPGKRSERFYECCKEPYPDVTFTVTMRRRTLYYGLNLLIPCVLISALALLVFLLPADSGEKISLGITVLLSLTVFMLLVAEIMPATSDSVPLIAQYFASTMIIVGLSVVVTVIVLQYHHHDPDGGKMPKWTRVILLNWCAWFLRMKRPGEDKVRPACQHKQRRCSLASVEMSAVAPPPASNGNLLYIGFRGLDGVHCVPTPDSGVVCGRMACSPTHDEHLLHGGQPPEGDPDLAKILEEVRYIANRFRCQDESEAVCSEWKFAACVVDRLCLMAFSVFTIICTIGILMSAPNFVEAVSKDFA

Molecule: HOBDI-BF2–α-CbTx (from UniProt P01391 1-71) (natural protein)
- IC50 [1]: 27 nM
- IC50 [2]: 3.88 nM

Molecule: HOBDI-BF2–Aze (fraction 4, label at Lys6) (peptide)
- IC50 [2]: 172 nM

Molecule: α-cobratoxin (from UniProt P01391 1-71) (natural protein)
- IC50 [1]: 5.4 nM
- IC50 [2]: 0.57 nM

Molecule: DNWWPKPPHQGPRPPRPRPKP-NH2 [azemiopsin]
- IC50 [2]: 7.3 nM

Molecule: DNWWPKPPHQGPRPPRPRPKP-NH2 (also: one p-HOBDI-BF2 label, position not given here) [Fraction 5 of p-HOBDI-BF2-modified azemiopsin (mono-modified product)]
- IC50 [2]: 128 nM

Molecule: DNWWPKPPHQGPRPPRPRPKP-NH2 (also: one p-HOBDI-BF2 label, position not given here)
- IC50 [2]: 210 nM

B1: α-cobratoxin (natural protein)
chain: IRCFITPDITSKDCPNGHVCYTKTWCDAFCSIRGKRVDLGCAATCPTVKTGVDIQCCSTDNCNPFPTRKRP
- IC50 [3]: 28 nM

B2: ^125I-α-bungarotoxin (natural protein)
chain: IVCHTTATSPISAVTCPPGENLCYRKMWCDAFCSSRGKVVELGCAATCPSKKPYEEVTCCSTDKCNPHPKQRPG
- binding result [4]: binds

B3: HOBDI-BF2–α-CbTx (natural protein)
chain: B1 chain
- Kd [5]: 194 ± 89 nM
- Kd [6]: ~200 nM
- IC50 [3]: 67 nM
